Results on 4 molecules are retold here after US20230103631A1, “PEPTIDES AS SELECTIVE GIP RECEPTOR AGONISTS” (Sanofi, priority 2020, published 2023).

*1 amine or outer side, *2 acyl side, *3 side chain or, on linkers, in order; H or OH if unused. Where no end group is shown, it is not given here. Side-chain parts run from the residue outwards. [ ]: non-standard residue; d: D form. The star is where a group is joined. C18 diacid = O=C(O)CCCCCCCCCCCCCCCCC(=O)*; γGlu = O=C(O)[C@H](CCC(=O)[*:2])N[*:1]; AEEA = NCCOCCOCC(=O)O; Aib = CC(C)(N)C(=O)O; Sar = CNCC(=O)O

The conditions of data set [1]: in vivo; cited from earlier work.
For data set [2], the target named is T1, human GIP receptor (human, UniProt P48546 22-466).
T1 sequence (looked up): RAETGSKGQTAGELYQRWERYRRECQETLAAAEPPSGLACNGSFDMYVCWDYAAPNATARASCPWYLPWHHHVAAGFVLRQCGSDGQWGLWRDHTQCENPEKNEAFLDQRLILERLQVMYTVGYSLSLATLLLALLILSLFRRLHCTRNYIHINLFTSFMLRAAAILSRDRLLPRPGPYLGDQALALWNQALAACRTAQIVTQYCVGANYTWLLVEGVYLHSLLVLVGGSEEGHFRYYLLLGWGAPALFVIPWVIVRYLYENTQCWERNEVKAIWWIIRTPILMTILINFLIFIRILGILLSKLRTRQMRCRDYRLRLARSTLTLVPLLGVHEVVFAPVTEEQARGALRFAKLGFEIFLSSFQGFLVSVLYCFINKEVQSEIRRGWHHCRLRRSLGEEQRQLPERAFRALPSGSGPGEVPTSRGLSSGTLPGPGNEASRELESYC
The data set can be described thus: cell-based or functional assay.

Data set [3] addresses T2, human GLP-1 receptor (human, UniProt P43220 24-463). The data set can be described thus: cell-based or functional assay.
The target of data set [4] is T1, human GIP receptor. Put plainly: cell-based or functional assay. This is another data set of the same source.
Data set [5] deals with T1, human GIP receptor. Put plainly: displacement of [125I]GIP from hGIPR HEK-293 membranes, SPA. On the technique in general: Loss of bound radioactivity is the signal in a displacement assay; it reports binding, not function.
Data set [6] has as its target T2, human GLP-1 receptor. The data set can be described thus: displacement of [125I]GLP-1 from hGLP-1R HEK-293 membranes, SPA.

`CC[C@H](C)[C@H](NC(=O)[C@H](CO)NC(=O)[C@H](Cc1ccc(O)cc1)NC(=O)[C@H](CC(=O)O)NC(=O)[C@H](CO)NC(=O)[C@@H](NC(=O)[C@H](Cc1ccccc1)NC(=O)[C@@H](NC(=O)CNC(=O)[C@H](CCC(=O)O)NC(=O)[C@H](C)NC(=O)[C@@H](N)Cc1ccc(O)cc1)[C@@H](C)O)[C@@H](C)CC)C(=O)N[C@@H](C)C(=O)N[C@@H](CCSC)C(=O)N[C@@H](CC(=O)O)C(=O)N[C@@H](CCCCN)C(=O)N[C@H](C(=O)N[C@@H](Cc1c[nH]cn1)C(=O)N[C@@H](CCC(N)=O)C(=O)N[C@@H](CCC(N)=O)C(=O)N[C@@H](CC(=O)O)C(=O)N[C@@H](Cc1ccccc1)C(=O)N[C@H](C(=O)N[C@@H](CC(N)=O)C(=O)N[C@@H](Cc1c[nH]c2ccccc12)C(=O)N[C@@H](CC(C)C)C(=O)N[C@@H](CC(C)C)C(=O)N[C@@H](C)C(=O)N[C@@H](CCC(N)=O)C(=O)N[C@@H](CCCCN)C(=O)NCC(=O)N[C@@H](CCCCN)C(=O)N[C@@H](CCCCN)C(=O)N[C@@H](CC(N)=O)C(=O)N[C@@H](CC(=O)O)C(=O)N[C@@H](Cc1c[nH]c2ccccc12)C(=O)N[C@@H](CCCCN)C(=O)N[C@@H](Cc1c[nH]cn1)C(=O)N[C@@H](CC(N)=O)C(=O)N[C@H](C(=O)N[C@H](C(=O)N[C@@H](CCC(N)=O)C(=O)O)[C@@H](C)O)[C@@H](C)CC)C(C)C)[C@@H](C)CC` [SEQ ID NO: 1, GIP (glucose-dependent insulinotropic polypeptide)]: the half-life (commonly how long it takes for the measured level to halve) in data set [1] is recorded as 2 min.

B1: SEQ ID NO: 9 (peptide)
peptide: Y[Aib]EGTFISDLSI[Aib]K([AEEA-AEEA-γGlu-C18 diacid])DRIHQEEFIEWLLAQGPSSGAPPPS-NH2
modifications: N-terminus assumed
SMILES: CC[C@H](C)[C@H](NC(=O)[C@H](Cc1ccccc1)NC(=O)[C@H](CCC(=O)O)NC(=O)[C@H](CCC(=O)O)NC(=O)[C@H](CCC(N)=O)NC(=O)[C@H](Cc1c[nH]cn1)NC(=O)[C@@H](NC(=O)[C@H](CCCNC(=N)N)NC(=O)[C@H](CC(=O)O)NC(=O)[C@H](CCCCNC(=O)COCCOCCNC(=O)COCCOCCNC(=O)CC[C@H](NC(=O)CCCCCCCCCCCCCCCCC(=O)O)C(=O)O)NC(=O)C(C)(C)NC(=O)[C@@H](NC(=O)[C@H](CO)NC(=O)[C@H](CC(C)C)NC(=O)[C@H](CC(=O)O)NC(=O)[C@H](CO)NC(=O)[C@@H](NC(=O)[C@H](Cc1ccccc1)NC(=O)[C@@H](NC(=O)CNC(=O)[C@H](CCC(=O)O)NC(=O)C(C)(C)NC(=O)[C@@H](N)Cc1ccc(O)cc1)[C@@H](C)O)[C@@H](C)CC)[C@@H](C)CC)[C@@H](C)CC)C(=O)N[C@@H](CCC(=O)O)C(=O)N[C@@H](Cc1c[nH]c2ccccc12)C(=O)N[C@@H](CC(C)C)C(=O)N[C@@H](CC(C)C)C(=O)N[C@@H](C)C(=O)N[C@@H](CCC(N)=O)C(=O)NCC(=O)N1CCC[C@H]1C(=O)N[C@@H](CO)C(=O)N[C@@H](CO)C(=O)NCC(=O)N[C@@H](C)C(=O)N1CCC[C@H]1C(=O)N1CCC[C@H]1C(=O)N1CCC[C@H]1C(=O)N[C@@H](CO)C(N)=O
notes: Exendin-4 derived synthetic lipidated peptide of formula I
Consider B1, for which, in the data set with human GIP receptor [2], the “EC50 hGIPR 0% HSA, cAMP in HEK-293 cells” value worked out at 0.00019 nM and the “EC50 hGIPR 0.1% HSA, cAMP in HEK-293 cells” value (shortened to “EC50 hGIPR 0.1% HSA, cAMP”) is 0.00194 nM. Besides, in the data set with human GLP-1 receptor [3], the “EC50 hGLP-1R 0% HSA, cAMP in HEK-293 cells” value (“EC50 hGLP-1R 0% HSA, cAMP” for short) was above 10 nM. For the same molecule, in the data set with human GIP receptor [4], the “hGIPR EC50, cAMP in human adipocytes” value came out at 1.4 nM and the “hGIPR Emax, cAMP in human adipocytes” value was 125%. The concentration for half-maximal inhibition (IC50) (commonly the point on the concentration scale where inhibition reaches its midpoint) with human GIP receptor [5] was 0.9 nM. Further, the IC50 with human GLP-1 receptor [6] came to 307 nM.

B2: SEQ ID NO: 5 (peptide)
peptide: Y[Aib]EGTFISDLSI[Aib]K([Gly-Gly-Gly-γGlu-C18 diacid])DRIHQ[Aib]EFIEWLLAQGPSSGAPPPS-NH2
modifications: N-terminus assumed
SMILES: CC[C@H](C)[C@H](NC(=O)[C@H](CCCNC(=N)N)NC(=O)[C@H](CC(=O)O)NC(=O)[C@H](CCCCNC(=O)CNC(=O)CNC(=O)CNC(=O)CC[C@H](NC(=O)CCCCCCCCCCCCCCCCC(=O)O)C(=O)O)NC(=O)C(C)(C)NC(=O)[C@@H](NC(=O)[C@H](CO)NC(=O)[C@H](CC(C)C)NC(=O)[C@H](CC(=O)O)NC(=O)[C@H](CO)NC(=O)[C@@H](NC(=O)[C@H](Cc1ccccc1)NC(=O)[C@@H](NC(=O)CNC(=O)[C@H](CCC(=O)O)NC(=O)C(C)(C)NC(=O)[C@@H](N)Cc1ccc(O)cc1)[C@@H](C)O)[C@@H](C)CC)[C@@H](C)CC)C(=O)N[C@@H](Cc1c[nH]cn1)C(=O)N[C@@H](CCC(N)=O)C(=O)NC(C)(C)C(=O)N[C@@H](CCC(=O)O)C(=O)N[C@@H](Cc1ccccc1)C(=O)N[C@H](C(=O)N[C@@H](CCC(=O)O)C(=O)N[C@@H](Cc1c[nH]c2ccccc12)C(=O)N[C@@H](CC(C)C)C(=O)N[C@@H](CC(C)C)C(=O)N[C@@H](C)C(=O)N[C@@H](CCC(N)=O)C(=O)NCC(=O)N1CCC[C@H]1C(=O)N[C@@H](CO)C(=O)N[C@@H](CO)C(=O)NCC(=O)N[C@@H](C)C(=O)N1CCC[C@H]1C(=O)N1CCC[C@H]1C(=O)N1CCC[C@H]1C(=O)N[C@@H](CO)C(N)=O)[C@@H](C)CC
notes: as for B1
Consider B2, for which, in the data set with human GIP receptor [2], the “EC50 hGIPR 0% HSA, cAMP in HEK-293 cells” value was determined as 0.00016 nM and the “EC50 hGIPR 0.1% HSA, cAMP” value was determined as 0.00175 nM. In addition, the “EC50 hGLP-1R 0% HSA, cAMP” value with human GLP-1 receptor [3] was above 10 nM. In the data set with human GIP receptor [4], the “hGIPR EC50, cAMP in human adipocytes” value came out at 0.5 nM and the “hGIPR Emax, cAMP in human adipocytes” value came to 137%. This molecule had an IC50 with human GLP-1 receptor [6] of 145 nM.

B3: SEQ ID NO: 6 (peptide)
peptide: Y[Aib]EGTFISDLSI[Aib]K([Sar-Sar-Sar-γGlu-C18 diacid])DRIHQ[Aib]EFIEWLLAQGPSSGAPPPS-NH2
modifications: N-terminus assumed
SMILES: CC[C@H](C)[C@H](NC(=O)[C@H](CCCNC(=N)N)NC(=O)[C@H](CC(=O)O)NC(=O)[C@H](CCCCNC(=O)CN(C)C(=O)CN(C)C(=O)CN(C)C(=O)CC[C@H](NC(=O)CCCCCCCCCCCCCCCCC(=O)O)C(=O)O)NC(=O)C(C)(C)NC(=O)[C@@H](NC(=O)[C@H](CO)NC(=O)[C@H](CC(C)C)NC(=O)[C@H](CC(=O)O)NC(=O)[C@H](CO)NC(=O)[C@@H](NC(=O)[C@H](Cc1ccccc1)NC(=O)[C@@H](NC(=O)CNC(=O)[C@H](CCC(=O)O)NC(=O)C(C)(C)NC(=O)[C@@H](N)Cc1ccc(O)cc1)[C@@H](C)O)[C@@H](C)CC)[C@@H](C)CC)C(=O)N[C@@H](Cc1c[nH]cn1)C(=O)N[C@@H](CCC(N)=O)C(=O)NC(C)(C)C(=O)N[C@@H](CCC(=O)O)C(=O)N[C@@H](Cc1ccccc1)C(=O)N[C@H](C(=O)N[C@@H](CCC(=O)O)C(=O)N[C@@H](Cc1c[nH]c2ccccc12)C(=O)N[C@@H](CC(C)C)C(=O)N[C@@H](CC(C)C)C(=O)N[C@@H](C)C(=O)N[C@@H](CCC(N)=O)C(=O)NCC(=O)N1CCC[C@H]1C(=O)N[C@@H](CO)C(=O)N[C@@H](CO)C(=O)NCC(=O)N[C@@H](C)C(=O)N1CCC[C@H]1C(=O)N1CCC[C@H]1C(=O)N1CCC[C@H]1C(=O)N[C@@H](CO)C(N)=O)[C@@H](C)CC
notes: as for B1
Consider B3, for which, in the data set with human GIP receptor [2], the “EC50 hGIPR 0% HSA, cAMP in HEK-293 cells” value was 0.00017 nM and the “EC50 hGIPR 0.1% HSA, cAMP” value is 0.00105 nM. Moreover, in the data set with human GLP-1 receptor [3], the “EC50 hGLP-1R 0% HSA, cAMP” value is above 10 nM. For the same molecule, in the data set with human GIP receptor [4], the “hGIPR EC50, cAMP in human adipocytes” value was found to be 0.3 nM and the “hGIPR Emax, cAMP in human adipocytes” value turned out to be 112%. The IC50 with human GLP-1 receptor [6] is 173 nM.
